# US7101851 (dated 2006)
# Where “and” joins values, the source holds several entries; their conditions need not be identical. Equal values may be shown once. Bridges are numbered along the chain shown (N, C = ends). Where no end group is shown, it is not given here.
# T1: extracellular domain of the alpha subunit of the human FcεRI (aa 1-176) (human, UniProt P12319 26-201)
# T1 construct: range 1-176; also called soluble FcεRI; baculovirus-derived FcεRI
# T1 sequence (looked up): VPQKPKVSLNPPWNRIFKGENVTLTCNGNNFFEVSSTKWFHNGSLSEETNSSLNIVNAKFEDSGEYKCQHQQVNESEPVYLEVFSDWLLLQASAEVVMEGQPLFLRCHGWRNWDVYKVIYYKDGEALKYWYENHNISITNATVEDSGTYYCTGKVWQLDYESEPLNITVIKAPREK
# T2: extracellular domain of the alpha subunit of the human FcεRI (aa 1-176), produced in baculovirus infected … (human, UniProt P12319 26-201, N-linked carbohydrate (NAG on Asn21 seen in the crystal); derivatised with PDEA for thiol coupling to the chip in the biosensor assay)
# T2 construct: range 1-176; Residues 1-176 are probably counted without the signal peptide; also called FcεRIα; soluble FcεRI
# T2 sequence (looked up): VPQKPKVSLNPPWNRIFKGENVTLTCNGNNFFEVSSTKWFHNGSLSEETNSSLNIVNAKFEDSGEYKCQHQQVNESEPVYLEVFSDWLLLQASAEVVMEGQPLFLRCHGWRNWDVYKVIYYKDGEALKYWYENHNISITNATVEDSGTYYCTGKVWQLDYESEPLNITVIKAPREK
# T3: alpha subunit of the human FcεRI receptor expressed on cells (human, UniProt P12319 26-257)
# T3 construct: whole, on cells; on rat basophil RBL-48 cells in the histamine release assay; also called CHO FcεRI+ cells; cell surface expressed FcεRI
# T3 sequence (looked up): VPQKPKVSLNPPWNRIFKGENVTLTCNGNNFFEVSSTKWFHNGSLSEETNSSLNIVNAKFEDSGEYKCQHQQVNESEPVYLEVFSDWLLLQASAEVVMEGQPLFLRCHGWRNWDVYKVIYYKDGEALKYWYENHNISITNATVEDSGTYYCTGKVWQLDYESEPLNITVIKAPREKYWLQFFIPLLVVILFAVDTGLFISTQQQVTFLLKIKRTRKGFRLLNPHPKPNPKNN
# T4: FcεRI-IgG (UniProt P12319 26-205)
# T4 construct: extracellular domain; Produced from CHO cells (Genentech); also called FcεRI-Fc; bivalent fusion protein of the extracellular domain of FcεRI and the Fc domain of IgG; not shown: Fc domain of IgG
# T4 sequence (looked up): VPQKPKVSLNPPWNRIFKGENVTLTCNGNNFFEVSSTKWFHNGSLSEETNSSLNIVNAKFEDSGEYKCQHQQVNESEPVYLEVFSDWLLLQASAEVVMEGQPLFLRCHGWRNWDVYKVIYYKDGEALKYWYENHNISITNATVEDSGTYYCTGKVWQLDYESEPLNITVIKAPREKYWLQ
# Experiments:
# [1] = molecular target: T1, extracellular domain of the alpha …; assay: competitive phage ELISA on FcεRI (FIG. 2)
# Experimental: Phage ELISA assays were carried out as described (Lowman, 1998, supra), using Nunc Maxisorp™ plates coated with a 2 μg/mL solution of baculovirus-derived FcεRI. Peptide-phage were pre-incubated for 5–10 min with serial dilutions of receptor, then added to the receptor-coated plate. After incubation for 1 h at room temperature, the plates were washed and an anti-phage HRP-conjugated antibody (Pharmacia) was added. After further incubation for 20 min, plates were again washed and developed using the substrate OPD (Sigma). Optical density at 492 nm was read and plotted as a function of FcεRI concentration to determine an $IC50$ of inhibition by each peptide-phage variant.
# These libraries were sorted for FcεRI binding as described above. […] The "linker region" (underlined) of the peptide was randomized in this library.
# [2] = molecular target: T2, extracellular domain of the alpha …; assay: SPR biosensor (BIAcore), peptide over immobilized FcεRIα; Kd (apparent) calculated from kon and koff
# Experimental: *peptide is a dimer. SEQ ID NO: describes each monomer of the dimer. "ava" = amino-valeric acid Several peptides were also tested in a direct-binding assay using a surface plasmon resonance biosensor (Lofas & Johnsson, *J. Chem. Soc. Commun.* 21, 1526–1528 (1990)). FcεRIα, produced in baculovirus infected insect cells, was immobilized by the surface thiol method (BIAcore Methods Manual Supplement 5a, BIAcore, Inc., Piscataway, N.J.). Briefly, receptor was reacted with 2-(2-pyridinyldithio)ethaneamine hydrochloride (PDEA; Natake & Swaisgood, *J. Biochem.* 74, 77–86 (1973)), desalted into 10 mM sodium acetate (pH 4.8) and stored in aliquots at −80° C. Thawed PDEA-receptor was injected over carboxymethyl-dextran (B1 or CM5, BIAcore, Inc.) biosensor chips preactivated with N-ethyl-N'-(3-dimethylaminopropyl)-carbodiimide hydrochloride (EDC) and N-hydroxysuccinimide (NHS), cystamine, and DTT. […] Serial dilutions of peptide in running buffer (phosphate-buffered saline containing 0.05% Tween-20, 0.01% sodium azide) were injected over the immobilized receptor, and the net amount of peptide bound at steady-state was measured as the net change in response (RU) at a point just prior to termination of peptide injection, compared to a running-buffer baseline. […] In the case of IGE134 (SEQ ID NOS:), the value shown indicates the Kd calculated from the rate constants, $kon$ and $koff$. […]
# [3] = molecular target: T3, alpha subunit of the human FcεRI …; assay: inhibition of 125I-IgE binding to CHO cells expressing FcεRI alpha; 7-10 days after dissolving, when the homodimer had formed
# Experimental: (§1) To determine the ability of peptides to inhibit IgE binding to FcεRI, a cell-based binding assay was used with radiolabeled IgE. Chinese hamster ovary cells expressing the alpha subunit of the human FcεRI receptor were cultured overnight in Falcon 96 well microtiter plates at a concentration of 5 ×10^4 cells per well. The following day the cells were rinsed three times with PBS and then once with F12/DMEM. Peptide stocks were reconstituted in 100 mM Hepes buffered water, pH 7.2, at a concentration of 5 mg/mL. Working concentrations of the peptide were diluted in assay buffer (see below). 75 uL of a desired concentration of peptide was added to the top row of a separate 96 well microtiter plate and serially diluted 1:3 in 50 uL of the assay buffer (F12/DMEM, 1% BSA, 0.05% NaN_3 and 0.025 mM Hepes pH 7.2). Starting concentrations ranged from 50–500 uM. Next, 50 uL of the diluted peptide was transferred to the 96 microtiter well plate containing a monolayer of CHO FcεRI+ cells. […] Cells were
# The size of each peptide was confirmed by mass spectrometry. […] This increase over time was not observed with the other peptides.
# [4] = molecular target: T3, alpha subunit of the human FcεRI …; assay: inhibition of 125I-IgE binding to CHO cells expressing FcεRI alpha; freshly dissolved peptide (monomer)
# Experimental: as §1, with “Cells were […]” for “Cells were”
# FcεRI-IgG [5] = molecular target: T4, FcεRI-IgG; assay: competitive phage ELISA; reference of the N-terminal truncation series
# Experimental: (§2) This oligonucleotide was annealed with a g3 single stranded DNA phagemid template. The mutagenesis reaction was transformed into XL-1 Blue *E. coli* and plated on LB-carb+ agar plates. Individual colonies were propagated in 5 mL of 2YT broth, tetracycline, carbenicillin and VCSM13 helper phage (Stratagene). Single stranded DNA was isolated from the purified phage particles and sequenced to confirm the insertion of the phage peptide sequence. 25 mL preparations of g3 phage clones were propagated overnight and purified by PEG precipitation. After resuspension of the phage pellet in 1.0 mL of PBS, it was serially diluted 1/3 and incubated with immobilized FcεRI-IgG 2 ug/mL in a 96 well Maxisorp microtiter plate for 1 hour at room temperature. The wells were washed 10× with PBST then incubated with 100 uL of anti M13 phage HRP as described above. An OD(492) value corresponding to less than 50% binding was selected and the purified phage clones were diluted to yield this normalized level of signal. […] The mixture was then transferred to 96 well microtiter dishes containing immobilized FcεRI-IgG. After a 1-hour incubation period, the plates were washed 10 times, incubated with anti M13-HRP conjugated antibody and developed with OPD as described above.
# (§3) In addition, stepwise N-terminal and C-terminal truncations of the peptide sequence were constructed. […]
# FcεRI-IgG [6] = molecular target: T4, FcεRI-IgG; assay: competitive phage ELISA; reference of the C-terminal truncation series
# Experimental: as §2, §3
# FcεRI-IgG [7] = molecular target: T4, FcεRI-IgG; assay: competitive phage ELISA: g3 peptide-phage on immobilized FcεRI-IgG, soluble FcεRI-IgG titrated
# Experimental: as §2
# In addition, stepwise N-terminal and C-terminal truncations of the peptide sequence were constructed. All constructs were made by designing oligonucleotides corresponding to the desired substitution or truncation, with an additional 18 bp of DNA overlapping the peptide or g3 phage DNA sequence. The phage clones were propagated overnight following infection in XL-1 Blue *E. coli*. Purified phage preparations were titered and assayed for binding to immobilized receptor. FcεRI-IgG competition assays were performed as described above.
# [8] = molecular target: T1, extracellular domain of the alpha …; assay: competitive phage ELISA on FcεRI (FIG. 1)
binder,measurement,setting,value
IVCPRLCYELDYELCPDVCYV (not shown: M13 g3p display) [phage clone IVCPRLCYELDYELCPDVCYV from the IGE120-phage library (NBO895-619D)],fold improved affinity over IGE120,[1],~2 fold
"VQCPHFCYELDYELCPDVCYV-NH2 (disulfide 7-15, 3-19, also called peptide) [IGE134]",Kd,[2],32 nM
"ALCPAVCYV-NH2 (disulfide 3-7 (inferred); also: reshuffles over 3-12 days into disulfide-linked homodimer, held to be active form, Made as a cyclic monomer) [IGE037]",IC50,[3],25000 nM
same,IC50,[4],~300000 nM
"NLPRCTEGPWGWVCMAAD (not fully specified (bridges); cysteine pairing not given here, Monovalent g3p phage display; not shown: fused to M13 gene-3 protein (g3p) on phage) [g3c.42 peptide-phage]",Relative (IC50) (fold weaker),FcεRI-IgG [5],1 fold
same,Relative (IC50) (fold weaker),FcεRI-IgG [6],1 fold
same,IC50,FcεRI-IgG [7],5.6 nM and 3.1 nM
VQCPHFCYVGGKALCPDVCYV (not shown: M13 g3p display) [IGE122-phage VQCPHFCYVGGKALCPDVCYV],binding result,[8],binds
